± gives the uncertainty stated by the source.
Assay: amyloid nucleation score (Sup35N fusion, yeast selection) (log enrichment); library NNK1; higher = more nucleation; inactive = no reads after selection
Summary of the method: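 For the nucleation score, DiMSum gave the log enrichment of output over input reads, centred on the mode score of non-aggregating sequences. Psi-negative yeast expressing Sup35N fused to peptides of 20 random codons were induced with 100 μM copper sulfate for 24 hours and grown 7 days at 30°C on medium lacking adenine and uracil. Input and output plasmid inserts were Illumina-sequenced, and sequences with under 100 input reads were excluded.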

| Substance | amyloid nucleation score |
| --- | --- |
| DRMLLMVCIVWNRFVKGFPH | inactive |
| ILWLFSGAWLYYSVLYCL | -0.076 ± 0.51 |
| SVFELLCSPQSVNRTFNTPY | 1.09 ± 0.36 |
| RFANMLNVFENV | -0.179 ± 0.26 |
| DVGCLCNNMHMILILLNYRV | 0.446 ± 0.44 |
| PCWTNSLLKPPVGIR | -0.281 ± 1.1 |
| VSYQGTSAFDGSRKVVGPTL | 0.353 ± 0.54 |
| FASRVCMRSNQKIPAWQLWS | -0.359 ± 0.29 |
| FAVLHNMMFMKYVRLFLVVT | 0.247 ± 0.45 |
| RWLDYYADNARHVSQTLRRR | -0.575 ± 0.64 |
| TVFFDYDDIYLVNSVFRSAV | -0.113 ± 0.44 |
| GKPLTTVVAIIF | 3.56 ± 0.11 |
| DCRMFDFLA | -0.444 ± 0.38 |
| SFFSSVVDF | 0.2 ± 0.63 |
| FFTLHAFQ | inactive |
| VIYFLRYHLFNSLVSPHNRR | inactive |
| WIHIVYGFWSWVWGI | -0.327 ± 0.47 |
| VYAYTRY | 0.194 ± 0.68 |
| NMLVRKAG | -0.036 ± 0.73 |
| SLMFTPEYCVED | 1.41 ± 0.69 |
| PVHVLYFTWMNQECCGHNYL | 6.5 ± 0.07 |
| ERWIVVPDESTTRTTHRHIN | 0.147 ± 1.6 |

| Substance | amyloid nucleation score |
| --- | --- |
| VIGLVLARLYFVQIEVLLHR | 1.24 ± 0.61 |
| NGFSDRKLDFHTRHMGH | -0.147 ± 0.36 |
| SLIRLCVAVTSTSNPGWPLL | 3.09 ± 0.12 |
| VCFVFMS | -0.211 ± 0.41 |
| VKTPSVRIKWDVISLSLPCA | 0.156 ± 0.53 |
| TPLWKSII | -0.046 ± 0.68 |
| DYWRHSHVLHSPTKRKNRLV | 0.223 ± 0.34 |
| TQPLEIK | -0.165 ± 1.5 |
| NMHNQVAFISCSFILFDVIN | 6.95 ± 0.07 |
| TDLMLYYCYSAVPCWDFPAS | 0.073 ± 1 |
| VSHDGGLLRVWFMLALREGN | 0.003 ± 0.49 |
| KTRHMREDGQCVYKHEMERM | 0.577 ± 0.19 |
| NDWIFD | inactive |
| RWVPYHFV | 2.77 ± 0.13 |
| SVVFLQRFLDR | -0.564 ± 1.2 |
| VSTNKRVVGMRRFGTYTRYV | -0.309 ± 0.6 |
| AIPGGVTGTGWSSM | -0.221 ± 0.51 |
| LLKWLVDAW | 0.493 ± 0.25 |
| LNHLVSPKALQN | 0.017 ± 0.4 |
| NRKRFHGMNDASAAYFREVC | -1.33 ± 2.7 |
| VQFLIKPDLMTG | inactive |
| RDCFIRGKWCTCWHWCEGGE | 1.34 ± 0.27 |

| Substance | amyloid nucleation score |
| --- | --- |
| ITGFKFS | 0.698 ± 0.3 |
| SRTYFESRDFEEYRAMRPSL | inactive |
| SKLFLGGLPCTQYWPRMCMV | -0.356 ± 0.64 |
| NIEIRVCSRIVGHGLKFPKP | 3.37 ± 0.17 |
| KSVAIAPYDGCVMFSKQTWG | -0.025 ± 0.63 |
| FMCIPV | 0.189 ± 0.55 |
| VNGQYMRSHWFGDTTLLPIC | -0.316 ± 0.24 |
| VPHLNGCISFWNVSVGYKVP | 5.44 ± 0.077 |
| SFSLMGRFRSFMYACIVAAC | -0.936 ± 0.57 |
| NRLRNGPNDRVVRATAPKGF | 0.259 ± 0.4 |
| AYVDAL | 1.53 ± 0.48 |
| FHMPYLCNAKWRECLGFSAH | 0.279 ± 1.4 |
| KSESDL | inactive |
| GWVLCRGSLFIWWFWTSLRL | -0.106 ± 1.2 |
| RYTLFCLSVNYWWTFWLDSV | 1.61 ± 0.58 |
| NSGVVRLFPYFMYRTAWLKS | 0.224 ± 0.41 |
| YMHSGGQGLLCIQVSYTMSF | -0.503 ± 0.83 |
| IRIWSSREGFASIVWTCLMG | -0.32 ± 0.54 |
| PICANWLMHTVMINSSSGRG | 0.27 ± 0.32 |
| QCRQAQLVLFGVSVWTGYVK | -0.083 ± 0.38 |
| LWPKVLMVFTSM | 1.67 ± 0.15 |
| YLLSCVGIASLGFKVFL | -0.718 ± 0.7 |

| Substance | amyloid nucleation score |
| --- | --- |
| RSSCKTTLEIIGVLRMRVYA | 0.769 ± 0.45 |
| RIVRRFAGLISSI | inactive |
| HAGFGFVSSCCYLHWLTGDR | 3.98 ± 0.095 |
| WDAGVFWKMYLSTCRTSI | 0.949 ± 0.54 |
| KRLWLKLSTVE | 0.32 ± 0.32 |
| LSSVNGVLGRIGHLVAPSSF | -0.066 ± 1 |
| NKSVNLEYGRWVNMVPGLM | inactive |
| AVCSMKKSVMYELNVGFTYR | inactive |
| FVLLRIRHRFFWGSCLNPFQ | 1.12 ± 0.26 |
| GGSLVSGSFDKYSYSKYRLW | -0.128 ± 1.4 |
| GYNKHLGNSGSYVHQNGAQF | 1.06 ± 0.39 |
| NSFSDAYKIVYLHIYRSGGI | -0.448 ± 0.6 |
| ADDVCSCQGFLYRDVFCATD | 0.531 ± 0.93 |
| AIFKSITDPVLWSGLF | 0.562 ± 0.97 |
| HSSDLRAFLTDTFSRFYRIG | 0.911 ± 0.8 |
| LYGLLAGIMSCHWLSWIACK | -0.96 ± 2.7 |
| YRRWKPIGVMSSSWLICVES | 0.603 ± 0.43 |
| WLLLNDSFSTRHLFMPRSKW | -0.381 ± 0.75 |
| EYGNGSIKPVGRHWLEGYLH | -0.701 ± 1 |
| MNCLTSRILNVLIGSGCN | 3.33 ± 0.076 |

Source: the supplement of paper PMC12042874
